The record followed here is the supplement of paper PMC10567573.

The chains are these.
B1: VPS39 (parent)
chain: LRLENNHCHIEESEHVLKKAHKYS
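Also: lentivirally expressed fusions sorted by FACS into six bins by GFP to DsRed ratio, PSI derived from sequencing read proportions per bin multiplied by bin number.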

The variants in this data set derive from B1. Put plainly: protein stability index of a GFP-peptide fusion (GPS, HEK-293T) (PSI 1-6); higher = more stable. The note with it: c terminus: a fixed tail appended.
In the case of LRLENNHCHIEESEHVTKKAHKYS [L17T], the protein stability index was determined as 3.14.
Under LRLENNHCHIEESEHVIKKAHKYS [L17I] stands 2.35; under LRLENNHCHIEESEHVAKKAHKYS [L17A], 1.83.
Consider LRLENNHCHIEESEHVCKKAHKYS [L17C], for which the protein stability index was 2.65.
Under LRLENNHCHIEESEHVEKKAHKYS [L17E] stands 2.88; under LRLENNHCHIEESEHVYKKAHKYS [L17Y], 2.55; under LRLENNHCHIEESEHVDKKAHKYS [L17D], 3.68.
On to LRLENNHCHIEESPHVLKKAHKYS [E14P], for which the protein stability index stood at 2.4.
Under LRLENNHCHIEESSHVLKKAHKYS [E14S] stands 2.42; under LRLENNHCHIEESNHVLKKAHKYS [E14N], 2.31; under LRLENNHCHIEESWHVLKKAHKYS [E14W], 2.67.
Take LRLENNHCHIEESGHVLKKAHKYS [E14G]: the protein stability index came out at 2.56.
Under LRLENNHCHIEESYHVLKKAHKYS [E14Y] stands 1.88; under LRLENNHCHIEESTHVLKKAHKYS [E14T], 1.78.
Under LRLENNHCHIEESHHVLKKAHKYS [E14H] stands 2.33; under LRLENNHCHIEESVHVLKKAHKYS [E14V], 2.9; under LRLENNHCHIEESLHVLKKAHKYS [E14L], 2.16.
On to LRLENNHCHIEESDHVLKKAHKYS [E14D], for which the protein stability index amounted to 2.12.
Under LRLENNHCHIEESAHVLKKAHKYS [E14A] stands 2.38; under LRLENNHCHIEESRHVLKKAHKYS [E14R], 2.06; under LRLENNHCHIEESIHVLKKAHKYS [E14I], 1.88.
Consider LRLENNHCHIEESQHVLKKAHKYS [E14Q], for which the protein stability index is 2.1.
Under LRLENNHCHIEESMHVLKKAHKYS [E14M] stands 1.73.
As to LRLENNHCHIEESFHVLKKAHKYS [E14F], the protein stability index stood at 1.46.
Regarding LRLENNHCHIEESCHVLKKAHKYS [E14C], the protein stability index is 1.37.
Regarding LRLENNHCHIEESKHVLKKAHKYS [E14K], the protein stability index turned out to be 2.29.
Under LRLENNHCHIEEPEHVLKKAHKYS [S13P] stands 2.63.
Under LRLENNHCHIEEFEHVLKKAHKYS [S13F] stands 1.73; under LRLENNHCHIEEAEHVLKKAHKYS [S13A], 2.69.
Under LRLENNHCHIEEMEHVLKKAHKYS [S13M] stands 1.64.
Take LRLENNHCHIEELEHVLKKAHKYS [S13L]: the protein stability index was 1.95.
As for LRLENNHCHIEETEHVLKKAHKYS [S13T], the protein stability index is 2.37.
Under LRLENNHCHIEEKEHVLKKAHKYS [S13K] stands 2.92; under LRLENNHCHIEEHEHVLKKAHKYS [S13H], 2.18.
Consider LRLENNHCHIEEVEHVLKKAHKYS [S13V], for which the protein stability index worked out at 2.76.
As to LRLENNHCHIEEYEHVLKKAHKYS [S13Y], the protein stability index stood at 2.75.
LRLENNHCHIEEDEHVLKKAHKYS [S13D]: the protein stability index turned out to be 2.49.
Under LRLENNHCHIEEREHVLKKAHKYS [S13R] stands 2.15.
Under LRLENNHCHIEENEHVLKKAHKYS [S13N] stands 2.12; under LRLENNHCHIEEEEHVLKKAHKYS [S13E], 2.26; under LRLENNHCHIEEWEHVLKKAHKYS [S13W], 1.01.
For the variant LRLENNHCHIEEGEHVLKKAHKYS [S13G], the protein stability index turned out to be 2.56.
With LRLENNHCHIEEIEHVLKKAHKYS [S13I], the protein stability index is 1.32.
For the variant LRLENNHCHIEECEHVLKKAHKYS [S13C], the protein stability index turned out to be 2.06.
Turning to LRLENNHCHIEEQEHVLKKAHKYS [S13Q], the protein stability index came to 1.82.
As to LRLENNHCHIEESEHVLSKAHKYS [K18S], the protein stability index amounted to 1.91.
LRLENNHCHIEESEHVLDKAHKYS [K18D]: the protein stability index was determined as 2.31.
With LRLENNHCHIEESEHVLIKAHKYS [K18I], the protein stability index stood at 2.26.
As for LRLENNHCHIEESEHVLRKAHKYS [K18R], the protein stability index is 2.21.
Regarding LRLENNHCHIEESEHVLYKAHKYS [K18Y], the protein stability index stood at 2.39.
Under LRLENNHCHIEESEHVLEKAHKYS [K18E] stands 1.94.
For the variant LRLENNHCHIEESEHVLQKAHKYS [K18Q], the protein stability index worked out at 2.42.
Regarding LRLENNHCHIEESEHVLGKAHKYS [K18G], the protein stability index came out at 2.08.
Take LRLENNHCHIEESEHVLLKAHKYS [K18L]: the protein stability index stood at 1.88.
In the case of LRLENNHCHIEESEHVLFKAHKYS [K18F], the protein stability index stood at 2.09.
Under LRLENNHCHIEESEHVLNKAHKYS [K18N] stands 2.6.
As for LRLENNHCHIEESEHVLWKAHKYS [K18W], the protein stability index worked out at 1.27.
Under LRLENNHCHIEESEHVLAKAHKYS [K18A] stands 2.42; under LRLENNHCHIEESEHVLCKAHKYS [K18C], 2.02; under LRLENNHCHIEESEHVLTKAHKYS [K18T], 1.87.
As for LRLENNHCHIEESEHVLHKAHKYS [K18H], the protein stability index is 2.17.
Regarding LRLENNHCHIEESEHVLMKAHKYS [K18M], the protein stability index worked out at 2.12.
Turning to LRLENNHCHIEESEHVLPKAHKYS [K18P], the protein stability index was determined as 1.85.
For LRLENNHCHIEESEHVLVKAHKYS [K18V], the protein stability index is 2.54.
Under LRLENNHCHIEESEHVLKKAKKYS [H21K] stands 2.4; under LRLENNHCHIEESEHVLKKAGKYS [H21G], 2.5.
Under LRLENNHCHIEESEHVLKKAFKYS [H21F] stands 2.52; under LRLENNHCHIEESEHVLKKAIKYS [H21I], 1.38; under LRLENNHCHIEESEHVLKKANKYS [H21N], 2.68.
On to LRLENNHCHIEESEHVLKKACKYS [H21C], for which the protein stability index turned out to be 2.63.
For LRLENNHCHIEESEHVLKKALKYS [H21L], the protein stability index was found to be 1.9.
Under LRLENNHCHIEESEHVLKKAAKYS [H21A] stands 3.18.
Under LRLENNHCHIEESEHVLKKAMKYS [H21M] stands 1.81; under LRLENNHCHIEESEHVLKKAEKYS [H21E], 2.78.
Under LRLENNHCHIEESEHVLKKADKYS [H21D] stands 2.73; under LRLENNHCHIEESEHVLKKYHKYS [A20Y], 1.92; under LRLENNHCHIEESEHVLKKQHKYS [A20Q], 1.45.
As to LRLENNHCHIEESEHVLKKMHKYS [A20M], the protein stability index came out at 1.98.
In the case of LRLENNHCHIEESEHVLKKSHKYS [A20S], the protein stability index came out at 2.19.
Under LRLENNHCHIEESEHVLKKHHKYS [A20H] stands 2.3.
Under LRLENNHCHIEESEHVLKKWHKYS [A20W] stands 2.25; under LRLENNHCHIEESEHVLKKDHKYS [A20D], 2.73; under LRLENNHCHIEESEHVLKKTHKYS [A20T], 2.43.
Turning to LRLENNHCHIEESEHVLKKPHKYS [A20P], the protein stability index came out at 2.23.
Under LRLENNHCHIEESEHVLKKNHKYS [A20N] stands 2.38.
As to LRLENNHCHIEESEHVLKKRHKYS [A20R], the protein stability index worked out at 2.11.
Under LRLENNHCHIEESEHVLKKLHKYS [A20L] stands 1.71; under LRLENNHCHIEESEHVLKKVHKYS [A20V], 2.52.
On to LRLENNHCHIEESEHVLKKGHKYS [A20G], for which the protein stability index was determined as 2.73.
Under LRLENNHCHIEESEHVLKKKHKYS [A20K] stands 2.13; under LRLENNHCHIEESEHVLKKFHKYS [A20F], 2.24; under LRLENNHCHIEESEHVLKKEHKYS [A20E], 3.06.
Take LRLENNHCHIEESEHVLKKCHKYS [A20C]: the protein stability index was found to be 2.04.
Under LRLENNHCHIEESEHVLKKIHKYS [A20I] stands 1.61.
